Tested on: CHOP, BiP, and DR5 mRNA in HCT116 cells
Assay: qPCR of UPR target transcripts (CHOP, BiP, DR5)
Format: cell-based, Homo sapiens
Conditions: HCT116; for ERO1alpha (386+387) avg. fold induction relative to empty traffo / ERO1alpha (386+387) fold induction relative to empty traffo: melt curves for these primers showed two peaks; for GAPDH avg. fold induction relative to empty traffo / GAPDH fold induction relative to empty traffo: sheet Cq data 2
Protocol: Cells were grown in 6-well plates and harvested with 0.5 ml of TRIzol reagent (Life Technologies) per manufacturer’s protocol to extract RNA. For cDNA synthesis, 500 ng of total RNA was reverse transcribed with 2 μl of the SuperScript VILO master mix (Life Technologies # 11755050) in a total reaction volume of 10 μl following the manufacturer’s protocol for reaction temperature and duration. The reverse transcription product was diluted to 200 μl with 10 mM Tris-HCl pH 8.2 and used at 1:100 dilution for subsequent RT-PCR reactions.
PCR samples were prepared as described by manufacturer’s protocols from iQ SYBR Green Supermix (BioRad #17088800).
For each experiment, qRT-PCR reactions were set up in triplicate and run using a CFX96 Real Time System (Bio-Rad). Quantitation cycles were determined with CFX Manager 3.0 software (Bio-Rad) and then normalized to GAPDH as an internal control.

[1] = pRK CHOP 31 ng, mean of 3 replicates
[2] = pRK CHOP 62 ng, mean of 3 replicates
[3] = pRK CHOP 125 ng, mean of 3 replicates
[4] = pRK CHOP 250 ng, mean of 3 replicates
[5] = pRK CHOP 500 ng, mean of 3 replicates

B1: pRK CHOP (protein, UniProt P35638 1-169, looked up)
DNA damage-inducible …: MAAESLPFSFGTLSSWELEAWYEDLQEVLSSDENGGTYVSPPGNEEEESKIFTTLDPASLAWLTEEEPEPAEVTSTSQSPHSPDSSQSSLAQEEEEEDQGRTRKRKQSGHSPARAGKQRMKEKEQENERKVAQLAEENERLKQEIERLTREVEATRRALIDRMVNLHQA
modifications: expression plasmid
GAPDH (qPCR CHOP, Sheet1) (pRK CHOP 31 ng, replicate 1): 0.869
CHOP (qPCR CHOP, Sheet1) (pRK CHOP 31 ng, replicate 2): 19.1521
DR5 (qPCR CHOP, Sheet1) (pRK CHOP 31 ng, replicate 2): 0.9212
GADD34 (qPCR CHOP, Sheet1) (pRK CHOP 31 ng, replicate 2): 1.088
GAPDH (qPCR CHOP, Sheet1) (pRK CHOP 31 ng, replicate 2): 1.031
CHOP (qPCR CHOP, Sheet1) (pRK CHOP 31 ng, replicate 3): 20.8362
DR5 (qPCR CHOP, Sheet1) (pRK CHOP 31 ng, replicate 3): 2.023
GADD34 (qPCR CHOP, Sheet1) (pRK CHOP 31 ng, replicate 3): 1.137
GAPDH (qPCR CHOP, Sheet1) (pRK CHOP 31 ng, replicate 3): 1.033
GADD34 (388+389) avg. fold induction relative to empty traffo [1]: 1
GFP avg. fold induction relative to empty traffo [1]: 1.822
ERO1alpha (386+387) avg. fold induction relative to empty traffo [1]: 1.061
ERO1alpha (386+387) fold induction relative to empty traffo (pRK CHOP 31 ng, replicate 1): 0.958
ERO1alpha (386+387) fold induction relative to empty traffo (pRK CHOP 31 ng, replicate 2): 1.088
ERO1alpha (386+387) fold induction relative to empty traffo (pRK CHOP 31 ng, replicate 3): 1.137
GADD34 (388+389) fold induction relative to empty traffo (pRK CHOP 31 ng, replicate 1): 1.125
GFP fold induction relative to empty traffo (pRK CHOP 31 ng, replicate 1): 1.737
GADD34 (388+389) fold induction relative to empty traffo (pRK CHOP 31 ng, replicate 2): 0.859
GFP fold induction relative to empty traffo (pRK CHOP 31 ng, replicate 2): 1.908
GADD34 (388+389) fold induction relative to empty traffo (pRK CHOP 31 ng, replicate 3): 1.016
GFP fold induction relative to empty traffo (pRK CHOP 31 ng, replicate 3): 1.822
GAPDH avg. fold induction relative to empty traffo [1]: 1.0065
GAPDH fold induction relative to empty traffo (pRK CHOP 31 ng, replicate 1): 0.9404
GAPDH fold induction relative to empty traffo (pRK CHOP 31 ng, replicate 2): 0.905
GAPDH fold induction relative to empty traffo (pRK CHOP 31 ng, replicate 3): 1.174
GFP avg. fold induction relative to empty traffo [2]: 1.726
ERO1alpha (386+387) avg. fold induction relative to empty traffo [2]: 1.099
ERO1alpha (386+387) fold induction relative to empty traffo (pRK CHOP 62 ng, replicate 1): 1.074
ERO1alpha (386+387) fold induction relative to empty traffo (pRK CHOP 62 ng, replicate 2): 1.056
ERO1alpha (386+387) fold induction relative to empty traffo (pRK CHOP 62 ng, replicate 3): 1.168
GADD34 (388+389) fold induction relative to empty traffo (pRK CHOP 62 ng, replicate 1): 0.9151
GFP fold induction relative to empty traffo (pRK CHOP 62 ng, replicate 1): 1.604
GADD34 (388+389) fold induction relative to empty traffo (pRK CHOP 62 ng, replicate 2): 1.316
GFP fold induction relative to empty traffo (pRK CHOP 62 ng, replicate 2): 1.747
GADD34 (388+389) fold induction relative to empty traffo (pRK CHOP 62 ng, replicate 3): 1.12
GFP fold induction relative to empty traffo (pRK CHOP 62 ng, replicate 3): 1.828
GAPDH avg. fold induction relative to empty traffo [2]: 1.001
GAPDH fold induction relative to empty traffo (pRK CHOP 62 ng, replicate 1): 0.9597
GAPDH fold induction relative to empty traffo (pRK CHOP 62 ng, replicate 2): 0.9785
GAPDH fold induction relative to empty traffo (pRK CHOP 62 ng, replicate 3): 1.064
CHOP (qPCR CHOP, Sheet1) (pRK CHOP 125 ng, replicate 1): 230.561
DR5 (qPCR CHOP, Sheet1) (pRK CHOP 125 ng, replicate 1): 1.242
GADD34 (qPCR CHOP, Sheet1) (pRK CHOP 125 ng, replicate 1): 1.11
GAPDH (qPCR CHOP, Sheet1) (pRK CHOP 125 ng, replicate 1): 0.8158
CHOP (qPCR CHOP, Sheet1) (pRK CHOP 125 ng, replicate 2): 173.762
DR5 (qPCR CHOP, Sheet1) (pRK CHOP 125 ng, replicate 2): 1.206
GADD34 (qPCR CHOP, Sheet1) (pRK CHOP 125 ng, replicate 2): 1.18
GAPDH (qPCR CHOP, Sheet1) (pRK CHOP 125 ng, replicate 2): 1.045
CHOP (qPCR CHOP, Sheet1) (pRK CHOP 125 ng, replicate 3): 257.78
DR5 (qPCR CHOP, Sheet1) (pRK CHOP 125 ng, replicate 3): 1.064
GADD34 (qPCR CHOP, Sheet1) (pRK CHOP 125 ng, replicate 3): 1.241
GAPDH (qPCR CHOP, Sheet1) (pRK CHOP 125 ng, replicate 3): 1.086
GFP avg. fold induction relative to empty traffo [3]: 8.414
ERO1alpha (386+387) avg. fold induction relative to empty traffo [3]: 1.177
ERO1alpha (386+387) fold induction relative to empty traffo (pRK CHOP 125 ng, replicate 1): 1.11
ERO1alpha (386+387) fold induction relative to empty traffo (pRK CHOP 125 ng, replicate 2): 1.18
ERO1alpha (386+387) fold induction relative to empty traffo (pRK CHOP 125 ng, replicate 3): 1.241
GADD34 (388+389) fold induction relative to empty traffo (pRK CHOP 125 ng, replicate 1): 1.561
GFP fold induction relative to empty traffo (pRK CHOP 125 ng, replicate 1): 9.5448
GADD34 (388+389) fold induction relative to empty traffo (pRK CHOP 125 ng, replicate 2): 1.2889
GFP fold induction relative to empty traffo (pRK CHOP 125 ng, replicate 2): 8.015
GADD34 (388+389) fold induction relative to empty traffo (pRK CHOP 125 ng, replicate 3): 1.475
GFP fold induction relative to empty traffo (pRK CHOP 125 ng, replicate 3): 7.683
GAPDH avg. fold induction relative to empty traffo [3]: 1.018
GAPDH fold induction relative to empty traffo (pRK CHOP 125 ng, replicate 1): 0.7828
GAPDH fold induction relative to empty traffo (pRK CHOP 125 ng, replicate 2): 1.018
GAPDH fold induction relative to empty traffo (pRK CHOP 125 ng, replicate 3): 1.254
GFP avg. fold induction relative to empty traffo [4]: 2.186
ERO1alpha (386+387) avg. fold induction relative to empty traffo [4]: 1.157
ERO1alpha (386+387) fold induction relative to empty traffo (pRK CHOP 250 ng, replicate 1): 1.13
ERO1alpha (386+387) fold induction relative to empty traffo (pRK CHOP 250 ng, replicate 2): 1.17
ERO1alpha (386+387) fold induction relative to empty traffo (pRK CHOP 250 ng, replicate 3): 1.17
GADD34 (388+389) fold induction relative to empty traffo (pRK CHOP 250 ng, replicate 1): 1.613
GFP fold induction relative to empty traffo (pRK CHOP 250 ng, replicate 1): 2.374
GADD34 (388+389) fold induction relative to empty traffo (pRK CHOP 250 ng, replicate 2): 1.727
GFP fold induction relative to empty traffo (pRK CHOP 250 ng, replicate 2): 2.176
GADD34 (388+389) fold induction relative to empty traffo (pRK CHOP 250 ng, replicate 3): 1.397
GFP fold induction relative to empty traffo (pRK CHOP 250 ng, replicate 3): 2.009
GAPDH avg. fold induction relative to empty traffo [4]: 1.005
GAPDH fold induction relative to empty traffo (pRK CHOP 250 ng, replicate 1): 0.8675
GAPDH fold induction relative to empty traffo (pRK CHOP 250 ng, replicate 2): 1.034
GAPDH fold induction relative to empty traffo (pRK CHOP 250 ng, replicate 3): 1.114
CHOP (qPCR CHOP, Sheet1) (pRK CHOP 500 ng, replicate 1): 1691.32
DR5 (qPCR CHOP, Sheet1) (pRK CHOP 500 ng, replicate 1): 1.92
GADD34 (qPCR CHOP, Sheet1) (pRK CHOP 500 ng, replicate 1): 1.469
GAPDH (qPCR CHOP, Sheet1) (pRK CHOP 500 ng, replicate 1): 0.9688
CHOP (qPCR CHOP, Sheet1) (pRK CHOP 500 ng, replicate 2): 1384.67
DR5 (qPCR CHOP, Sheet1) (pRK CHOP 500 ng, replicate 2): 1.724
GADD34 (qPCR CHOP, Sheet1) (pRK CHOP 500 ng, replicate 2): 1.35
GAPDH (qPCR CHOP, Sheet1) (pRK CHOP 500 ng, replicate 2): 0.7886
CHOP (qPCR CHOP, Sheet1) (pRK CHOP 500 ng, replicate 3): 1378.19
DR5 (qPCR CHOP, Sheet1) (pRK CHOP 500 ng, replicate 3): 1.731
GADD34 (qPCR CHOP, Sheet1) (pRK CHOP 500 ng, replicate 3): 1.457
GAPDH (qPCR CHOP, Sheet1) (pRK CHOP 500 ng, replicate 3): 1.212
GFP avg. fold induction relative to empty traffo [5]: 12.178
ERO1alpha (386+387) avg. fold induction relative to empty traffo [5]: 1.425
ERO1alpha (386+387) fold induction relative to empty traffo (pRK CHOP 500 ng, replicate 1): 1.469
ERO1alpha (386+387) fold induction relative to empty traffo (pRK CHOP 500 ng, replicate 2): 1.35
ERO1alpha (386+387) fold induction relative to empty traffo (pRK CHOP 500 ng, replicate 3): 1.457
GADD34 (388+389) fold induction relative to empty traffo (pRK CHOP 500 ng, replicate 1): 2.321
GFP fold induction relative to empty traffo (pRK CHOP 500 ng, replicate 1): 5.396
GADD34 (388+389) fold induction relative to empty traffo (pRK CHOP 500 ng, replicate 2): 2.041
GADD34 (388+389) fold induction relative to empty traffo (pRK CHOP 500 ng, replicate 3): 2.147
GFP fold induction relative to empty traffo (pRK CHOP 500 ng, replicate 3): 5.386
GAPDH avg. fold induction relative to empty traffo [5]: 1.044
GAPDH fold induction relative to empty traffo (pRK CHOP 500 ng, replicate 1): 0.6526
GAPDH fold induction relative to empty traffo (pRK CHOP 500 ng, replicate 2): 1.156
GAPDH fold induction relative to empty traffo (pRK CHOP 500 ng, replicate 3): 1.324
